Reference: patent publication US20200375880A1, “PLANT EXTRACTS FROM THE TAGETES GENUS AND USES OF SAME” (PLANT ADVANCED TECHNOLOGIES PAT, priority 2016, published 2020)

Legend:
[1] = system: rat primary cortical neurons; test: Survival of primary cortical neurons injured by Aβ1-42 peptide (MAP-2 staining); format: cell-based; details: Aβ1-42 peptide 20 μM, 24 hours, 0.1% DMSO
Description: (§1) The purpose of this study is to evaluate the effects of the root extract on rat primary cortical neurons, intoxicated by Aβ peptide according to the in vitro Alzheimer disease model described in Callizot et al., 2013 (Callizot N. et al., Operational dissection of β-amyloid cytopathic effects on cultured neurons, J Neurosci Res. 2013, 91: 706-16). The neuron survival as well as the integrity of the neuritic network are evaluated.
(§2) Four concentrations are tested: 10 ng/mL, 100 ng/mL, 1 μg/mL and 10 μg/mL of dry extract diluted in water with 0.1% of DMSO.
(§3) Rat cortical neurons are cultured as described in Singer et al., 1999 (Singer C, et al., Mitogen-activated protein kinase pathway mediates estrogen neuroprotection after glutamate toxicity in primary cortical neurons. J Neurosci. 1999, 19: 2455-2463) and Callizot et al., (2013). In summary, gravid female rats are killed by cervical dislocation after 15 days of pregnancy. The foetuses are collected and immediately placed on an ice L15 Leibovitz medium (Pan Biotech, Batch: 8810315) added with 2% of penicillin (10,000 U/mL) and a streptomycin solution (l0 mg/mL) (PS; Pan Biotech, batch: 1451013) and 1% of bovine serum albumin (BSA; Pan Biotech, batch: K180713). […] The viable cells are counted with a Neubauer cytometer, using the trypan blue exclusion test. […]

[2] = system: neuritic network of rat primary cortical neurons; test: Neuritic network of primary cortical neurons injured by Aβ1-42 peptide (MAP-2 staining); format: cell-based; details: Aβ1-42 peptide 20 μM, 24 hours, 0.1% DMSO
Description: as §1, §2, §3

cells = details: pre-treatment of cells with leontopodic acid, Costa et al. 2010; cited from earlier work

Molecule	neurone death induced by the peptide alone [1]	loss of the neuritic network induced by the peptide alone [2]	cell survival (cells)	production of reactive oxygen species (ROS) (cells)
Aβ1-42 peptide: β-amyloid peptide (Bachem) used at 20 μM to intoxicate cortical neurons	significant neurone death	significant loss of the neuritic network		
C[C@H](O)CC(=O)O[C@@H](C(=O)O)[C@@H](OC(=O)/C=C/c1ccc(O)c(O)c1)[C@H](OC(=O)/C=C/c1ccc(O)c(O)c1)[C@H](OC(=O)/C=C/c1ccc(O)c(O)c1)C(=O)O [leontopodic acid]			no improvement in the cell survival	decrease in the production of reactive oxygen species (ROS)
